The source of these data is US9658208B2, “Methods and G proteins for screening and identifying ligands of G protein-coupled receptors” (Fred Hutchinson Cancer Research Center, priority 2011, dated 2017).

The experiment concerns nine GPCRs that do not bind to Gαs (serotonin 1b, neuropeptide Y1, leukotriene B4, dopamine D4, GNRH, UDP, calcium-sensing, T1R2/T1R3). Nature of the experiment: CRE-SEAP reporter gene assay, coupling of chimeric G proteins with a variety of GPCRs. It is filed as cell-based. To be noted: HEK-293 cells, GPCR ligand 48 hours. The text has this: The GPCRs examined were those that couple with Gαi/Gαo subunits (serotonin 1b, neuropeptide Y1, leukotriene B4, and dopamine D4), Gαq (GNRH, UDP, and calcium-sensing receptors), and the orphan mammalian sweet taste receptor complex (T1R2 and T1R3) with unknown coupling preference. The Gαs-based chimeric G proteins examined in this example were Gαs-Gαi-5, Gαs-Gαt-13 (SEQ ID NO: 3), Gαs-Gαo-13 (SEQ ID NO: 4), Gαs-Gαi-13 (SEQ ID NO: 5), Gαs-Gαz-6 (SEQ ID NO: 18), Gαs-Gα15-13 (SEQ ID NO: 7), Gαs-Gαk-5 (SEQ ID NO: 2), and Gαs-Gαq-13 (SEQ ID NO: 8). The chimeric G protein constructs were prepared as described herein. For the coupling assay, HEK-293 cells were cotransfected with each of the Gαs-based chimeric G protein constructs of interest together with the CRE-SEAP reporter gene construct and a cDNA encoding the GPCR to be tested. The transfected cells were cultured in the presence or absence of a GPCR ligand and then assayed for SEAP activity.
Chimeric G protein cloning: An insert containing rat Gαs cDNA was cut out using the restriction enzymes SaII and HinDIII, and ligated into pcDNA3.1(−) cut with XhoI and HinDIII. The chimeric G proteins with the desired C-terminal amino acid substitutions from the Gαi, Gαt, Gαo, Gαz, Gα15, Gαk, and Gαq were prepared by PCR using Gαs as a template. More specifically, Gαs was PCR amplified between an internal EcoRI site and the stop codon, with a 3′ HinDIII placed immediately after the stop codon. A different 3′ oligonucleotide was used for each Gαs chimera and contained a 39 bp sequence that encoded the substituted amino acids at the C-terminus selected from the donor Gα subunit.
GPCR cloning: Mouse 5-HT1B, mouse dopamine D4, human GNRH, and human neuropeptide Y1 receptors were cloned by PCR from cDNA templates (ATCC) and ligated into pcDNA 3.1(−) (Invitrogen) for expression in mammalian cells. […]
Following transfection, the cells were maintained for 48 hours in 200 ul serum free media containing GPCR ligand. […] Fluorescence was then measured using a CytoFluor 4000 multi well plate reader (Applied Biosystems).

B1: Gαs-Gαt-13: Gαs-based chimeric G protein, final 13 C-terminal amino acids substituted with those of Gαt (protein)
chain: MGCLGNSKTEDQRNEEKAQREANKKIEKQLQKDKQVYRATHRLLLLGAGESGKSTIVKQMRILHVNGFNGEGGEEDVPDYASNSDGEKATKVQDIKNNLKEAIETIVAAMSNLVPPVELANPENQFRVDYILSVMNVPNFDFPPEFYEHAKALWEDEGVRACYERSNEYQLIDCAQYFLDKIDVIKQADYVPSDQDLLRCRVLTSGIFETKFQVDKVNFHMFDVGGQRDERRKWIQCFNDVTAIIFVVASSSYNMVIREDNQTNRLQEALNLFKSIWNNRWLRTISVILFLNKQDLLAEKVLAGKSKIEDYFPEFARYTTPEDATPEPGEDPRVTRAKYFIRDEFLRISTASGDGRHYCYPHFTCAVDTENIRRVFNDCRDIIIKENLKDCGLF
modifications: Chimeric protein
notes: Gαs-based chimeric G protein, final 13 C-terminal amino acids substituted with those of Gαt
For B1, the “GPCRs tested that coupled to the chimera” value is listed as “All but one”.
